According to patent publication US20250276018A1 (AFFYIMMUNE THERAPEUTICS, published 2025):
Where a chain is given by its changes, count along the chain named. Numbers in names are those of the source.

Legend:
[1] = biological target: T1, c-MET on human target cells (human, UniProt P08581 25-1390); assay: cell-based or functional assay
[2] = biological target: T1, c-MET on human target cells; assay: cell-based or functional assay; remark: listed apart in the source
[3] = biological target: T1, c-MET on human target cells; assay: cell-based or functional assay; remark: listed apart in the source
[4] = biological target: T1, c-MET on human target cells; assay: cell-based or functional assay; remark: listed apart in the source
[5] = biological target: T1, c-MET on human target cells; assay: cell-based or functional assay; remark: listed apart in the source
[6] = biological target: T2, AF647 labeled c-met protein (UniProt P08581 25-932, limits assumed, labeled with AlexaFluor 647 (AF647)); assay: flow cytometry, AF647-labeled c-met protein titrated on CAR-T cells (Round 2)
T2 construct: Soluble labeled c-met protein titrated on CAR-T cells
T2 sequence (P08581 25-932 limits assumed): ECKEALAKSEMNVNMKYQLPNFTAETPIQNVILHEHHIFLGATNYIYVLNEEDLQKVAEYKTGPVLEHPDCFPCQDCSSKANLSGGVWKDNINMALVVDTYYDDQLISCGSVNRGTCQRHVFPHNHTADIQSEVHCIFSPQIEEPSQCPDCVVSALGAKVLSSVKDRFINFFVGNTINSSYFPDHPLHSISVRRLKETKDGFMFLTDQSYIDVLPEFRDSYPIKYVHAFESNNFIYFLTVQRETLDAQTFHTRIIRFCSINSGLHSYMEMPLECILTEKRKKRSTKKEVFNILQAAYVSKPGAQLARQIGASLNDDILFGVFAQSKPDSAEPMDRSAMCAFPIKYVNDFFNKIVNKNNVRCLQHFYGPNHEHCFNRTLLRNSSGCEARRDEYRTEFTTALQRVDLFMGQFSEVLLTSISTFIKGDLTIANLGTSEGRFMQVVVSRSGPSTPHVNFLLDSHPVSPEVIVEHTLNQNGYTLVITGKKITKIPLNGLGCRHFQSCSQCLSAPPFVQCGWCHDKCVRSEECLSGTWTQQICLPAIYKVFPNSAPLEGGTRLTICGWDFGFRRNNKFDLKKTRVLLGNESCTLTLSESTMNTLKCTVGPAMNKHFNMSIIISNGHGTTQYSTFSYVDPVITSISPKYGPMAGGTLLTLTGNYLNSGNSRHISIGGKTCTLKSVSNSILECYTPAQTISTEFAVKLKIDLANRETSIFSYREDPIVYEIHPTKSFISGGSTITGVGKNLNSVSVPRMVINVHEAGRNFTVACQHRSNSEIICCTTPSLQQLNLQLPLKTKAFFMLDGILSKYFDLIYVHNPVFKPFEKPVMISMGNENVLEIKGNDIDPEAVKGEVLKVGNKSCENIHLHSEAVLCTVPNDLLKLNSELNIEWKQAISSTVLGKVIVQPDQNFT
Experimental: (§1) Binding of labeled c-MET to CAR-T cells expressing the affinity tuned c-MET scFvs was evaluated by transducing lentivirus anti-c-MET CAR particles into human T cells to form c-MET CAR-T cells incubated with AF647-labeled c-MET. […] Following a 48 hr. incubation at 37° C., the culture media was brought up to […] per well and incubated at 37° C. for 10 days.
(§2) Cells were stained on ice for 30 mins and then washed with PBS. After washing, residually bound protein on CAR T cells were measured on a flow cytometer (Beckman, CytoFLEX®). The resulting binding data was fit using a non-linear regression analysis on GraphPad Prism to calculate half effective dose concentration (EC₅₀) values. The results of this analysis are shown in FIGS. 2-5 and Tables 2-5 below.

[7] = biological target: T2, AF647 labeled c-met protein; assay: flow cytometry, EC50 relative to parental Affy7 CAR-T cells (Round 2)
Experimental: as §1, §2

[8] = biological target: T1, c-MET on human target cells; assay: cell-based or functional assay; remark: listed apart in the source
[9] = biological target: T1, c-MET on human target cells; assay: cell-based or functional assay; remark: listed apart in the source

T1 sequence (P08581 25-1390): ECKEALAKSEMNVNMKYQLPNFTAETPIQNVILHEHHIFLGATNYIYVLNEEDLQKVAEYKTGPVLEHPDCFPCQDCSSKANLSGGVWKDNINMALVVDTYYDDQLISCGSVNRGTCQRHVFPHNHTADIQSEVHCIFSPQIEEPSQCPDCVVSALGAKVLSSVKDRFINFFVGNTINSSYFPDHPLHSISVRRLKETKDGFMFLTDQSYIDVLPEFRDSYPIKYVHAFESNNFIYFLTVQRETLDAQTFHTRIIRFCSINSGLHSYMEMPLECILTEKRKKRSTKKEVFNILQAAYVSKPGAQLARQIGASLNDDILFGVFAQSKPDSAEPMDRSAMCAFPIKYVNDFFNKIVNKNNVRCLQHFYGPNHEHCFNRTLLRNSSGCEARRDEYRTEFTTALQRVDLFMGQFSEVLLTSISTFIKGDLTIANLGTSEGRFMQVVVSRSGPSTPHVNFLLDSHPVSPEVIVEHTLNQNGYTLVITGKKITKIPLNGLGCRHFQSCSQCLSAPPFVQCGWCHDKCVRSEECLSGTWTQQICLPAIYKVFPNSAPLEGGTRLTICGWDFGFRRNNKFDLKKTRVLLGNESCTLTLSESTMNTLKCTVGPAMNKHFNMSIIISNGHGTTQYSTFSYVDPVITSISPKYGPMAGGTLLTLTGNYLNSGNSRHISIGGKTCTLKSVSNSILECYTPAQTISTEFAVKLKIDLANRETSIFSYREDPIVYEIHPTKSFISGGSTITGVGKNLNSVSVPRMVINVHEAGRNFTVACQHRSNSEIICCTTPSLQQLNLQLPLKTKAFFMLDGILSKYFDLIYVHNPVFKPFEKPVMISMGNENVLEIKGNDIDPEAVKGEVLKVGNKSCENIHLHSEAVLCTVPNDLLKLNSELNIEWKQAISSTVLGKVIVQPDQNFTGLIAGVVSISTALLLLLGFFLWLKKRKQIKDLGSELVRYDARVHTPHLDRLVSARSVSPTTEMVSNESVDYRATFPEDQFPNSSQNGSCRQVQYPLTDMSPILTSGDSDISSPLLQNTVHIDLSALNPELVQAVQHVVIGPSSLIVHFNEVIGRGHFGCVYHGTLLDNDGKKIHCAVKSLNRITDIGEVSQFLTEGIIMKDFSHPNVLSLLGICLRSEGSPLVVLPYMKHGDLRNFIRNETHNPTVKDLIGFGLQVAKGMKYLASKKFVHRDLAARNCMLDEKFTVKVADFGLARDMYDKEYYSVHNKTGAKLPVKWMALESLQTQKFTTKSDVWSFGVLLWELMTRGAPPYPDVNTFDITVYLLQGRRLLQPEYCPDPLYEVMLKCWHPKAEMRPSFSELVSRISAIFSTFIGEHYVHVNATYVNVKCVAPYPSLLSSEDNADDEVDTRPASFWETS

B1: Affy7-Y6I CAR (other)
chain: GSEQKLISEEDLGSQVQLQQSGPELVRPGASVKMSCRASGYTFTSYWLHWVKQRPGQGLEWIGMIDPSNSDTRFNPNFKDKATLNVDRSSNTAYMLLSSLTSADSAVYYCATIGSYVSPLDYWGQGTSVTVSSGGGGSGGGGSGGGGSDIMMSQSPSSLTVSVGEKVTVSCKSSQSLLYTSSQKNYLAWYQQKPGQSPKLLIYWASTRESGVPDRFTGSGSGTDFTLTITSVKADDLAVYYCQQYYAYPWTFGGGTKLEIKRASTTTPAPRPPTPAPTIASQPLSLRPEACRPAAGGAVHTRGLDFACDFWVLVVVGGVLACYSLLVTVAFIIFWVRSKRSRLLHSDYMNMTPRRPGPTRKHYQPYAPPRDFAAYRSLRVKFSRSADAPAYQQGQNQLYNELNLGRREEYDVLDKRRGRDPEMGGKPRRKNPQEGLYNELQKDKMAEAYSEIGMKGERRRGKGHDGLYQGLSTATKDTYDALHMQALPPR
notes: CAR on transduced human T cells; Y to I in HC CDR3; P2A remnant not included; also called MycT-Affy7-Y6I CAR-SSTR2
[1]
  percent cytotoxicity, Hs746T, 24 hrs: 1.5%
  percent cytotoxicity, Hs746T, 48 hrs: 45.4%
  percent cytotoxicity, Hs746T, 72 hrs: 69.4%
[2]
  cytotoxicity, Normal Human Lung Cells, 8 hrs: 23.1
  cytotoxicity, Normal Human Lung Cells, 16 hrs: 27.5
  cytotoxicity, Normal Human Lung Cells, 24 hrs: 26.9
  cytotoxicity, Normal Human Lung Cells, 32 hrs: 29.7
  cytotoxicity, Normal Human Lung Cells, 40 hrs: 29.9
  cytotoxicity, Normal Human Lung Cells, 48 hrs: 30.9
[3]
  cytotoxicity, Normal Human Liver Cells, 8 hrs: 7.8
  cytotoxicity, Normal Human Liver Cells, 16 hrs: 6.2
  cytotoxicity, Normal Human Liver Cells, 24 hrs: 7.4
  cytotoxicity, Normal Human Liver Cells, 32 hrs: 17.8
  cytotoxicity, Normal Human Liver Cells, 40 hrs: 16.4
  cytotoxicity, Normal Human Liver Cells, 48 hrs: 13.6
[4]
  percent cytotoxicity, H1993, 24 hrs: 11.7%
  percent cytotoxicity, H1993, 48 hrs: 45.8%
  percent cytotoxicity, H1993, 72 hrs: 73.5%
[5]
  cytotoxicity, Normal Human Kidney Cells, 8 hrs: 20.5
  cytotoxicity, Normal Human Kidney Cells, 16 hrs: 20.9
  cytotoxicity, Normal Human Kidney Cells, 24 hrs: 25.8
  cytotoxicity, Normal Human Kidney Cells, 32 hrs: 27.6
  cytotoxicity, Normal Human Kidney Cells, 40 hrs: 29.7
  cytotoxicity, Normal Human Kidney Cells, 48 hrs: 33.9
[6]
  EC50: 183 µM
[7]
  Fold Change: 1830 fold
[8]
  cytotoxicity, Normal Human Colon Cells, 8 hrs: 15.1
  cytotoxicity, Normal Human Colon Cells, 16 hrs: 18.8
  cytotoxicity, Normal Human Colon Cells, 24 hrs: 20.8
  cytotoxicity, Normal Human Colon Cells, 32 hrs: 28.9
  cytotoxicity, Normal Human Colon Cells, 40 hrs: 32.5
  cytotoxicity, Normal Human Colon Cells, 48 hrs: 36.4
[9]
  percent cytotoxicity, SNU638, 24 hrs: 67%
  percent cytotoxicity, SNU638, 48 hrs: 83.6%
  percent cytotoxicity, SNU638, 72 hrs: 93.2%

B2: Affy7-Y6M CAR (other)
chain: B1 chain with I113M
notes: CAR on transduced human T cells; Y to M in HC CDR3; P2A remnant not included; also called MycT-Affy7-Y6M CAR-SSTR2
[1]
  percent cytotoxicity, Hs746T, 24 hrs: 47.6%
  percent cytotoxicity, Hs746T, 48 hrs: 87%
  percent cytotoxicity, Hs746T, 72 hrs: 96.4%
[2]
  cytotoxicity, Normal Human Lung Cells, 8 hrs: 9.9
  cytotoxicity, Normal Human Lung Cells, 16 hrs: 9.7
  cytotoxicity, Normal Human Lung Cells, 24 hrs: 6.3
  cytotoxicity, Normal Human Lung Cells, 32 hrs: 6.9
  cytotoxicity, Normal Human Lung Cells, 40 hrs: 9.5
  cytotoxicity, Normal Human Lung Cells, 48 hrs: 13.8
[3]
  cytotoxicity, Normal Human Liver Cells, 8 hrs: 7.2
  cytotoxicity, Normal Human Liver Cells, 16 hrs: 6.2
  cytotoxicity, Normal Human Liver Cells, 24 hrs: 9
  cytotoxicity, Normal Human Liver Cells, 32 hrs: 10.9
  cytotoxicity, Normal Human Liver Cells, 40 hrs: 11.3
  cytotoxicity, Normal Human Liver Cells, 48 hrs: 10
[4]
  percent cytotoxicity, H1993, 24 hrs: 21.3%
  percent cytotoxicity, H1993, 48 hrs: 70.5%
  percent cytotoxicity, H1993, 72 hrs: 89.6%
[5]
  cytotoxicity, Normal Human Kidney Cells, 8 hrs: 8.8
  cytotoxicity, Normal Human Kidney Cells, 16 hrs: 10
  cytotoxicity, Normal Human Kidney Cells, 24 hrs: 12
  cytotoxicity, Normal Human Kidney Cells, 32 hrs: 13.3
  cytotoxicity, Normal Human Kidney Cells, 40 hrs: 15.9
  cytotoxicity, Normal Human Kidney Cells, 48 hrs: 19.7
[6]
  EC50: 17.2 µM
[7]
  Fold Change: 172 fold
[8]
  cytotoxicity, Normal Human Colon Cells, 8 hrs: 1.4
  cytotoxicity, Normal Human Colon Cells, 16 hrs: 1.7
  cytotoxicity, Normal Human Colon Cells, 24 hrs: 1.4
  cytotoxicity, Normal Human Colon Cells, 32 hrs: 7.1
  cytotoxicity, Normal Human Colon Cells, 40 hrs: 1.8
  cytotoxicity, Normal Human Colon Cells, 48 hrs: 3.6
[9]
  percent cytotoxicity, SNU638, 24 hrs: 61.2%
  percent cytotoxicity, SNU638, 48 hrs: 77.5%
  percent cytotoxicity, SNU638, 72 hrs: 90.6%

B3: Affy7-Y6V CAR (other)
chain: B1 chain with I113V
notes: CAR on transduced human T cells; Y to V in HC CDR3; P2A remnant not included; also called MycT-Affy7-Y6V CAR-SSTR2
[1]
  percent cytotoxicity, Hs746T, 24 hrs: 65%
  percent cytotoxicity, Hs746T, 48 hrs: 94.8%
  percent cytotoxicity, Hs746T, 72 hrs: 98.2%
[2]
  cytotoxicity, Normal Human Lung Cells, 8 hrs: 18.2
  cytotoxicity, Normal Human Lung Cells, 16 hrs: 18
  cytotoxicity, Normal Human Lung Cells, 24 hrs: 15.4
  cytotoxicity, Normal Human Lung Cells, 32 hrs: 17.9
  cytotoxicity, Normal Human Lung Cells, 40 hrs: 16.7
  cytotoxicity, Normal Human Lung Cells, 48 hrs: 21.5
[3]
  cytotoxicity, Normal Human Liver Cells, 8 hrs: 6.5
  cytotoxicity, Normal Human Liver Cells, 16 hrs: 3.9
  cytotoxicity, Normal Human Liver Cells, 24 hrs: 5.5
  cytotoxicity, Normal Human Liver Cells, 32 hrs: 8.7
  cytotoxicity, Normal Human Liver Cells, 40 hrs: 10.7
  cytotoxicity, Normal Human Liver Cells, 48 hrs: 10.8
[4]
  percent cytotoxicity, H1993, 24 hrs: 40%
  percent cytotoxicity, H1993, 48 hrs: 84.2%
  percent cytotoxicity, H1993, 72 hrs: 93.8%
[5]
  cytotoxicity, Normal Human Kidney Cells, 8 hrs: 9.3
  cytotoxicity, Normal Human Kidney Cells, 16 hrs: 9.7
  cytotoxicity, Normal Human Kidney Cells, 24 hrs: 10.6
  cytotoxicity, Normal Human Kidney Cells, 32 hrs: 10.3
  cytotoxicity, Normal Human Kidney Cells, 40 hrs: 11
  cytotoxicity, Normal Human Kidney Cells, 48 hrs: 14.8
[6]
  EC50: 5.3 µM
[7]
  Fold Change: 53 fold
[8]
  cytotoxicity, Normal Human Colon Cells, 8 hrs: 9.4
  cytotoxicity, Normal Human Colon Cells, 16 hrs: 13.5
  cytotoxicity, Normal Human Colon Cells, 24 hrs: 14
  cytotoxicity, Normal Human Colon Cells, 32 hrs: 18.2
  cytotoxicity, Normal Human Colon Cells, 40 hrs: 20.3
  cytotoxicity, Normal Human Colon Cells, 48 hrs: 22.2
[9]
  percent cytotoxicity, SNU638, 24 hrs: 68.1%
  percent cytotoxicity, SNU638, 48 hrs: 81.9%
  percent cytotoxicity, SNU638, 72 hrs: 93.2%

B4: Affy7-Y6L CAR (other)
chain: B1 chain with I113L
notes: CAR on transduced human T cells; Y to L in HC CDR3; P2A remnant not included; also called MycT-Affy7-Y6L CAR-SSTR2
[1]
  percent cytotoxicity, Hs746T, 24 hrs: 1.6%
  percent cytotoxicity, Hs746T, 48 hrs: 42.9%
  percent cytotoxicity, Hs746T, 72 hrs: 64.5%
[2]
  cytotoxicity, Normal Human Lung Cells, 8 hrs: 21.1
  cytotoxicity, Normal Human Lung Cells, 16 hrs: 23.6
  cytotoxicity, Normal Human Lung Cells, 24 hrs: 22.8
  cytotoxicity, Normal Human Lung Cells, 32 hrs: 25.4
  cytotoxicity, Normal Human Lung Cells, 40 hrs: 25.9
  cytotoxicity, Normal Human Lung Cells, 48 hrs: 30.1
[3]
  cytotoxicity, Normal Human Liver Cells, 8 hrs: 6.1
  cytotoxicity, Normal Human Liver Cells, 16 hrs: 2.3
  cytotoxicity, Normal Human Liver Cells, 24 hrs: 2.5
  cytotoxicity, Normal Human Liver Cells, 32 hrs: 1.1
  cytotoxicity, Normal Human Liver Cells, 40 hrs: 0
  cytotoxicity, Normal Human Liver Cells, 48 hrs: 3.2
[4]
  percent cytotoxicity, H1993, 24 hrs: 12.8%
  percent cytotoxicity, H1993, 48 hrs: 42.6%
  percent cytotoxicity, H1993, 72 hrs: 71.2%
[5]
  cytotoxicity, Normal Human Kidney Cells, 8 hrs: 11.7
  cytotoxicity, Normal Human Kidney Cells, 16 hrs: 12.9
  cytotoxicity, Normal Human Kidney Cells, 24 hrs: 14.8
  cytotoxicity, Normal Human Kidney Cells, 32 hrs: 16.2
  cytotoxicity, Normal Human Kidney Cells, 40 hrs: 17.1
  cytotoxicity, Normal Human Kidney Cells, 48 hrs: 21.4
[6]
  EC50: 619 µM
[7]
  Fold Change: 6190 fold
[8]
  cytotoxicity, Normal Human Colon Cells, 8 hrs: 12.1
  cytotoxicity, Normal Human Colon Cells, 16 hrs: 16.4
  cytotoxicity, Normal Human Colon Cells, 24 hrs: 13.6
  cytotoxicity, Normal Human Colon Cells, 32 hrs: 19
  cytotoxicity, Normal Human Colon Cells, 40 hrs: 20
  cytotoxicity, Normal Human Colon Cells, 48 hrs: 17.2
[9]
  percent cytotoxicity, SNU638, 24 hrs: 66.9%
  percent cytotoxicity, SNU638, 48 hrs: 84.5%
  percent cytotoxicity, SNU638, 72 hrs: 93.5%
